Biological target: T1, RPP29 (coexpressed with RMP24 in bacteria) (human, UniProt O95707 1-220)
T1 construct: RPP29 (POP4), human; codon-optimized bicistronic cassette with C18orf21/RMP24 in pGEX-6P-1; The pGEX-6P-1 vector adds GST to one of the two chains; Elution was by PreScission protease or by reduced glutathione; also called POP4; source: E. coli BL21-DE3, coexpressed with RMP24, purified (Glutathione-Agarose, S200 increase)
T1 sequence: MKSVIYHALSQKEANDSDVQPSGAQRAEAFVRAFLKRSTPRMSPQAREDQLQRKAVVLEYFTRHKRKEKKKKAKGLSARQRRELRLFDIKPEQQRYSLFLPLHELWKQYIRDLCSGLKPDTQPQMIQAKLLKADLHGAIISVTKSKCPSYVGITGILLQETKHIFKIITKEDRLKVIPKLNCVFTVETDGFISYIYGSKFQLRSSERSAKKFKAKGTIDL
Assay: SEC; RMP24 and RPP29 coexpressed in E. coli, isolated on Glutathione-Agarose, then passed over a Superdex S200 increase 10/300 GL column in 25 mM Tris HCl pH 8, 100 mM NaCl, 1 mM DTT; peak fractions on Coomassie-stained SDS–PAGE and LC–MS
Settings: both partners purified

B1: RMP24 (coexpressed with RPP29 in bacteria) (natural protein, human, UniProt Q32NC0 1-220, looked up)
chain: MRQKHYLEAAARGLHDSCPGQARYLLWAYTSSHDDKSTFEETCPYCFQLLVLDNSRVRLKPKARLTPKIQKLLNREARNYTLSFKEAKMVKKFKDSKSVLLITCKTCNRTVKHHGKSRSFVSTLKSNPATPTSKLSLKTPERRTANPNHDMSGSKGKSPASVFRTPTSGQSVSTCSSKNTSKTKKHFSQLKMLLSQNESQKIPKVDFRNFLSSLKGGLLK
notes: C18orf21 (RMP24), human; codon-optimized bicistronic cassette with RPP29 in pGEX-6P-1; The pGEX-6P-1 vector adds GST to one of the two chains; also called C18orf21; full-length RMP24; source: E. coli BL21-DE3, coexpressed with RPP29, purified (Glutathione-Agarose, S200 increase)
  binding result: binds

Reference: publication PMC12819141, “RNase MRP subunit composition and role in 40S ribosome biogenesis” (Nature Structural & Molecular Biology, 2025)
